Data: PMC6288486

System: His9
Assay: UV-vis
Conditions: 25 °C; none; pH adjusted with NaOH (1, 0.1, 0.01 M) and TFA (0.1 and 1% v/v in water); Mn(III) resting state, 15 µM. Transition from bis-aquo (species 1) to His-aquo (species 2) axial coordination. Helical fold stabilised by 40% TFE.

**Q.** Which pKa does the source give for “Mn-Mimochrome VI*a (Mn-MC6*a) (synthetic construct)” here?
**A.** 4.0
